Assay [1] addresses Plasmodium falciparum P2 (PfP2), recombinant histidine-tagged full length protein (Plasmodium falciparum) (UniProt O00806). Briefly: multi-angle light scattering; PfP2 250 to 400 µM, freshly prepared sample, HELEOS 8 Wyatt instrument, BSA as standard.
For assay [2] the target is unchanged. The assay can be described thus: dynamic light scattering; PfP2 40 to 180 µM in Tris buffer, pH 7.5, 25°C, freshly prepared samples; size from a calibration of hydrodynamic diameter against molecular weight.

On to “Plasmodium falciparum P2 (PfP2), recombinant histidine-tagged full length protein (from UniProt O00806 1-112) (natural protein)”, for which the stoichiometry N (usually a count of units in the complex or per binding partner) in assay [1] lay in the range of 7 to 8; in assay [2], 8 to 9.

(Values after publication PMC3342256.)
